Experimental data as given in paper PMC4585971, “Functional Analyses of the Toxoplasma gondii DNA Gyrase Holoenzyme: A Janus Topoisomerase with Supercoiling and Decatenation Abilities” (Scientific Reports, 2015).

Experiments:
[1] = system: Nc1ncnc2c1ncn2[C@@H]1O[C@H](COP(=O)(O)OP(=O)(O)OP(=O)(O)O)[C@@H](O)[C@H]1O; assay: purified protein; conditions: Mg2+
EcGyrB = target: T1, EcGyrB (Escherichia coli, UniProt P0AES6); assay: native PAGE, nucleotide-induced dimerisation ([…] AMPPNP); assay type: binding
T1 construct: gene gyrB

Compound	Km [1] [µM]	native PAGE, nucleotide-induced dimerisation (4 mM AMPPNP) (EcGyrB)
EcGyrB (Escherichia coli K-12)	540 ± 50	–
Nc1ncnc2c1ncn2[C@@H]1O[C@H](CO[P@](=O)(O)O[P@](=O)(O)NP(=O)(O)O)[C@@H](O)[C@H]1O [AMPPNP]	–	This dimerisation pattern (monomer in the absence of nucleotide, dimer in the presence) is the same as for EcGyrB.
